Experimental data taken from patent US20240092919A1 (Ablynx, published 2024).
Several values for one entry are separate records, joined by “and”; a condition that tells them apart may be missing. Equal values may be shown once. Blank lines part the entries; values can stand above or below the binder they belong to.

Assays:
human CD123 on cells [1] = target: T1, human CD123 on cells (human, UniProt P26951 19-378); assay: flow cytometry on CHO cells transfected with human CD123
T1 construct: also called CHO human CD123; CHO hu CD123

[2] = target: T2, cynomolgus CD123 on cells (cynomolgus); assay: flow cytometry on HEK293 cells transfected with cynomolgus CD123
T2 construct: whole, on cells; also called HEK293 cyno CD123; cyCD123

human CD123 on cells [3] = target: T1, human CD123 on cells; assay: flow cytometry on CHO Flp-In huCD123 cells; FLAG-tagged ISVD, anti-FLAG + APC goat anti-mouse; MFI (median APC) [panel CHO Flp-In huCD123 cells]
[4] = target: T2, cynomolgus CD123 on cells; assay: flow cytometry on HEK Flp-In cyCD123 cells; FLAG-tagged ISVD, anti-FLAG + APC goat anti-mouse; MFI (median APC) [panel HEK Flp-In cyCD123 cells]
human CD33 on cells = target: T3, human CD33 on cells (human, UniProt P20138 18-364); assay: flow cytometry on CHO cells transfected with human CD33
T3 construct: whole, on cells; also called CHO hu CD33; huCD33

cynomolgus CD33 on cells = target: T4, cynomolgus CD33 on cells (cynomolgus); assay: flow cytometry on CHO cells transfected with cynomolgus CD33
T4 construct: whole, on cells; also called CHO cy CD33; cyCD33

human GPC3 on cells [5] = target: T5, human GPC3 on cells (human, UniProt P51654 25-554); assay: cell-based or functional assay
[6] = target: T6, human TCR on primary human T cells (human, UniProt P01848 1-140; P01850 1-176); assay: cell-based or functional assay
T6 TCR alpha (looked up): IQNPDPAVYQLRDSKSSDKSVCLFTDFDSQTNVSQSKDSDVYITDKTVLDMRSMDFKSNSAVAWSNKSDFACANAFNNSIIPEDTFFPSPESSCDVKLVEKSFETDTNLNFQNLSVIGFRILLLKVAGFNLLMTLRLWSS
T6 TCR beta (looked up): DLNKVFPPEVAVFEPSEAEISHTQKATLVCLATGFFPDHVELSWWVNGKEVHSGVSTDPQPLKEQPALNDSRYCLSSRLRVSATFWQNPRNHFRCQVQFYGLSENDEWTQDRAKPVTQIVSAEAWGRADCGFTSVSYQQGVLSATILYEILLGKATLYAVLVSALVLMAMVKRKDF

[7] = target: cynomolgus TCR on primary cynomolgus T cells (cynomolgus); assay: cell-based or functional assay
human GPC3 on cells [8] = target: T5, human GPC3 on cells; assay: flow cytometry, binding to Huh-7 cells
human GPC3 (recombinant) = target: T7, human GPC3 (recombinant) (human, UniProt P51654 25-559); assay: SPR, ProteOn XPR36; GPC3 captured on anti-His antibody
T7 construct: also called human Glypican-3
Description: (§1) Recombinant GPC3 proteins were captured on a GLC Sensor Chip (Biorad) immobilized with THE anti-His antibody (Genscript, cat no ABIN387699) via amine coupling, using EDC and NHS chemistry (running buffer: HBS-EP+, pH7.4). Purified ISVDs were injected for 2 minutes (flow rate 45 μL/min) at different concentrations (between 0.3 nM and 1000 nM) and dissociation was followed for 900 s. Regeneration was performed by injecting 10 mM Glycine-HCl (pH 1.5) for 1 minute (flow rate 45 μL/min). […] Processed sensorgrams were analyzed based on the 1:1 interaction model (Langmuir binding model) using ProteOn Manager 3.1.0 (Version 3.1.0.6) software.

[9] = target: T8, cyno GPC3 (recombinant, in house produced) (cynomolgus, UniProt A0A2K5VK50 24-558); assay: as above
T8 construct: also called cynomolgus Glypican-3
Description: as §1

[10] = target: T9, Cynomolgus TCR(AEA41865/AEA41866)-zipper protein (cynomolgus); assay: SPR, ProteOn XPR36; TCR-zipper protein immobilised by amine coupling
T9 construct: also called cyTCR-zipper; cyTCR(AEA41865)-zipper
T9 TCR alpha: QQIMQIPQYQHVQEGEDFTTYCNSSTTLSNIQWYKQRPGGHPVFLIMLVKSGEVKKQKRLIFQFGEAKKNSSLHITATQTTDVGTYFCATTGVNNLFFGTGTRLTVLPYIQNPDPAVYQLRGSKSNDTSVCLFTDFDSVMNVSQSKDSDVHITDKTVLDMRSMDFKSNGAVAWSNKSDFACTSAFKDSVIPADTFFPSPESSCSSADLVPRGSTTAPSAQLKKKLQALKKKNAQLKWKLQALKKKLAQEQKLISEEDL
T9 TCR beta: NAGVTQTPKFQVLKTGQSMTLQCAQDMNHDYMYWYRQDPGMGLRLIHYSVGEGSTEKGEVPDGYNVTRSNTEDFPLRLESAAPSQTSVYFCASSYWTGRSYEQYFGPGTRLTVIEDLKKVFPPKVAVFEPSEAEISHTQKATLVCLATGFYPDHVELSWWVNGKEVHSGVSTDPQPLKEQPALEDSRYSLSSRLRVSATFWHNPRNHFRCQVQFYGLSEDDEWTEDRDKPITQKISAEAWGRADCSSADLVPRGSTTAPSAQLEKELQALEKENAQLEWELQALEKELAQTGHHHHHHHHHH
Description: Purified ISVDs were injected for 2 minutes (flow rate 45 μL/min) at different concentrations (between 0.2 nM and 200 nM) and dissociation was followed for 900 s. Regeneration was performed by injecting 3 M MgCl₂ for 3 minutes (flow rate 90 μL/min). […] Processed sensorgrams were analyzed based on the 1:1 interaction model (Langmuir binding model) using ProteOn Manager 3.1.0 (Version 3.1.0.6) software.

[11] = target: T10, cyno GPC3 on CHO-Flp-In cells (cynomolgus, UniProt A0A2K5VK50 24-553); assay: flow cytometry, binding to CHO-Flp-In cells overexpressing cyno GPC3
T10 construct: whole, on cells; also called CHO cyGPC3

human GPC3 on cells [12] = target: T5, human GPC3 on cells; assay: flow cytometry, binding to CHO-Flp-In cells overexpressing human GPC3
[13] = target: T6, human TCR on primary human T cells; assay: flow cytometry competition on primary human T cells; competitor Flag-tagged T017000624 at EC30
Description: (§2) T cells (human T cells obtained as described in Example 3 and cyno T cells purchased from LPT laboratory, Germany) were thawed and counted on the day of the assay and diluted to a concentration of 1E+06 cells/mL, before adding 75 μL to the wells of a V-bottom 96-well plate (Greiner, cat no 651180). Cells were washed once with cold FACS buffer, before adding 25 μL Nb and 25 μL competitor to the wells. […] Cells were resuspended and plates were incubated at 4° C. for 90 minutes, after which plates were washed twice in cold FACS buffer. […] Plates were washed twice in cold FACS buffer. […] Plates were washed twice in cold FACS buffer. Cells were resuspended in 55 μL 1/1000 diluted Propidium Iodide (Sigma-Aldrich, cat no P4170) in FACS buffer before acquiring data on the MACSQuant X (Miltenyi biotec).

[14] = target: T11, cynomolgus TCR on primary cynomolgus T cells (cynomolgus); assay: flow cytometry competition on primary cynomolgus T cells; competitor Flag-tagged T017000623 at EC30
T11 construct: whole, on cells; also called cyno TCRαβ
Description: as §2

cyno GPC3 on cells = target: T12, cyno GPC3 on cells (cynomolgus monkey, UniProt A0A2K5VK50 24-553); assay: flow cytometry on cells; lower end, tied by Table 44 to CHO cyGPC3
T12 construct: whole, on cells; also called CHO cyGPC3; CHO-Flp-In cells overexpressing cyno GPC3

human GPC3 on cells [15] = target: T13, human GPC3 on cells (human, UniProt P51654 25-554); assay: flow cytometry on cells; upper end, tied by Table 44 to CHO huGPC3
T13 construct: whole, on cells; also called CHO huGPC3; CHO-Flp-In cells overexpressing human GPC3

T1 sequence (P26951 19-378 limits assumed): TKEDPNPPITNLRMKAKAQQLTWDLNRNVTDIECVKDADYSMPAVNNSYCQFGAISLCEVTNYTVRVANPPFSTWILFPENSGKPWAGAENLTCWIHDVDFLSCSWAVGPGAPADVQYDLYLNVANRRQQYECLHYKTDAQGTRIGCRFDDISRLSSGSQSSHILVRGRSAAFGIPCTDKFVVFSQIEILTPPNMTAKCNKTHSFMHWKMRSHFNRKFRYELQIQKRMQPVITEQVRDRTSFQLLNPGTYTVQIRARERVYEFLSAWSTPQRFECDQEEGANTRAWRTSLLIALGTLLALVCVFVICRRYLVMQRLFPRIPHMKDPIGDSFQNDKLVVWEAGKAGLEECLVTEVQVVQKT
T3 sequence (P20138 18-364): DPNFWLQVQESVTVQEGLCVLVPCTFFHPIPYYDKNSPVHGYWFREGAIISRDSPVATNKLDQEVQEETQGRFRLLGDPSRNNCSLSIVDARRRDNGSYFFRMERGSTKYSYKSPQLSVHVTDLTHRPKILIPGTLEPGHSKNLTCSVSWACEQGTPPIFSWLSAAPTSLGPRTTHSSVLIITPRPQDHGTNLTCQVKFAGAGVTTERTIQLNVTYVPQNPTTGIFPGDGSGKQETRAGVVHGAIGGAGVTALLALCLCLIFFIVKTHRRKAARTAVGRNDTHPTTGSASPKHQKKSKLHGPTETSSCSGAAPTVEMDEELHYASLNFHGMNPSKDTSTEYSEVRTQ

EC50 (human CD123 on cells [1]): 0.31 nM and 0.2 nM
EC50 [2]: 0.8 nM
EC50 (read off the curve) (human CD123 on cells [3]): ~0.7 nM
EC50 (read off the curve) [4]: ~0.3 nM
B1: monovalent CD123 building block (SEQ ID NO: 462) (VHH)
VHH: EVQLVESGGGVVQPGGSLRLSCAASGVIFSGNVMGWYRRQAPGKEREWVAAIAEGGSILYRDSVKGRFTISRDNAKNTVYLQMNSLRPEDTALYYCNSHPPVLPYWGQGTLVTVSS

EC50 (human CD33 on cells): 6.2 nM and 5.5 nM and 7.7 nM
EC50 (cynomolgus CD33 on cells): 5.7 nM and 12 nM
B2: monovalent CD33 building block (SEQ ID NO: 463) (VHH)
VHH: EVQLVESGGGVVQPGGSLRLSCAASGGVFRLNSMGWFRQAPGKQRELVAIITSDGDTNYADSVKGRFTISRDQAKNTVYLQMNSLRPEDTALYYCQITYSTSSYSFPINTWGQGTLVTVSS

IC50 (M) BxPC-3, xCELLigence human TDC assay, E:T 15:1, 60 h (human GPC3 on cells [5]): > 1e-07 M
IC50 (M) HepG2, xCELLigence human TDC assay, E:T 15:1, 60 h (human GPC3 on cells [5]): 1.15e-10 M
IC50 (M) Huh-7, xCELLigence human TDC assay, E:T 15:1, 60 h (human GPC3 on cells [5]): 1.16e-10 M
IC50 (M) NCI-H23, xCELLigence human TDC assay, E:T 15:1, 60 h (human GPC3 on cells [5]): > 1e-07 M
IC50 (M) NCI-H661, xCELLigence human TDC assay, E:T 15:1, 60 h (human GPC3 on cells [5]): 1.14e-10 M
Primary hu T cells IC50 (M), xCELLigence TDC assay on Huh-7, E:T 15:1, 60 h [6]: 7.59e-11 M
Primary cy T cells IC50 (M), xCELLigence TDC assay on Huh-7, E:T 15:1, 60 h [7]: 2.29e-10 M
EC50 (human GPC3 on cells [8]): 1.25 nM
Kd (human GPC3 (recombinant)): < 0.0056 nM
Kd [9]: < 0.0059 nM
Kd [10]: 5.4 nM
EC50 [11]: 1.11 nM
EC50 (human GPC3 on cells [12]): 1.82 nM
IC50 [13]: 170 nM
IC50 [14]: 250 nM
B3: A022600424 (other)
chain: DVQLVESGGGVVQPGGSLRLSCVASGYVHKINFYGWYRQAPGKEREKVAHISIGDQTDYADSAKGRFTISRDESKNTVYLQMNSLRPEDTAAYYCRALSRIWPYDYWGQGTLVTVSSGGGGSEVQLVESGGGVVQPGGSLRLSCAASGFTFSSFAMTWVRRPPGKGLEWVATITNKGVTSYADSVKGRFTISRDNAKNTLYLQMNSLRPEDTALYICANARRTGPRAPTDIGSYRGQGTLVTVSSGGGGSGGGSEVQLVESGGGVVQPGGSLRLSCAASGSIFRSVFSSSTMEWYRQAPGKKRELVARIAPGEGTYYGALYADSVKGRFTISRDNAKNTVYLQMNSLRPEDTALYYCASGVAWGQGTLVTVSSGGGGSGGGSEVQLVESGGGVVQPGGSLRLSCAASGFTFRSFGMSWVRQAPGKGPEWVSSISGSGSDTLYADSVKGRFTISRDNSKNTLYLQMNSLRPEDTALYYCTIGGSLSRSSQGTLVTVSSA
notes: also called T017000680-5GS-A022600351-9GS-A022600314-9GS-ALB23002-A

EC50 (cyno GPC3 on cells): 1 to 2 nM
EC50 (human GPC3 on cells [15]): 1 to 2 nM
B4: A022600424 (other)
chain: B3 chain
notes: as for B3
